Molecular target: T1, ECD of human 4Ig-B7H3 (Homo sapiens, UniProt Q5ZPR3)
T1 construct: ECD of human 4Ig-B7H3 (Sinobiological, Cat: 11188-H08H); purchased Sinobiological 11188-H08H
T1 sequence (Q5ZPR3 29-466 limits assumed): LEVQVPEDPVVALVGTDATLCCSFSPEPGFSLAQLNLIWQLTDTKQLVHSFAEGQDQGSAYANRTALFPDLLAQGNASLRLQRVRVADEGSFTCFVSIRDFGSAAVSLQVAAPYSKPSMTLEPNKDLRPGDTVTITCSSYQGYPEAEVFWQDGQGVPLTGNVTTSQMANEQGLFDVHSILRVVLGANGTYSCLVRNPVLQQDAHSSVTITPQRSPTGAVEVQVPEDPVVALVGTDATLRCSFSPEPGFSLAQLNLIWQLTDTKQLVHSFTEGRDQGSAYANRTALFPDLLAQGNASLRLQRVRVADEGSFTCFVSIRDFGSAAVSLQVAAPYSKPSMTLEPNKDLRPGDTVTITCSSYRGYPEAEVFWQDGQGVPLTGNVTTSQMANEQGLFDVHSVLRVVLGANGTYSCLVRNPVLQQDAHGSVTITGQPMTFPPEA
Experiment: SPR affinity determination
Format: binding
Text: For affinity determination, antibodies were captured by anti-human Fc surface, and used in an affinity assay based on surface plasmon resonance (SPR) technology. The results of SPR-determined binding profiles of humanized antibodies to ECD of human 4Ig-B7H3 (Sinobiological, Cat: 11188-H08H) were summarized in Table 20.

koff (Test 1): 1.04e-05 s⁻¹
kon (Test 1): 31500 M⁻¹ s⁻¹
koff (Test 2): 0.000227 s⁻¹
kon (Test 2): 369000 M⁻¹ s⁻¹
Kd (read-out: dissociation constants): 0.6 nM
B1: BGA-4348: "1^st version of humanized antibody BGA-4348", CDR-grafted from BGA-3295, human IgG1 variant format (antibody)
heavy: QIQLVQSGAEVKKPGSSVKVSCKASGYTFTNYDINWVRQAPGQGLEWMGWIYPGDGSAYYNEKFKGRATITADKSTSTAYMELSSLRSEDTAVYYCARWGYGGVPFAYWGQGTLVTVSSASTKGPSVFPLAPSSKSTSGGTAALGCLVKDYFPEPVTVSWNSGALTSGVHTFPAVLQSSGLYSLSSVVTVPSSSLGTQTYICNVNHKPSNTKVDKKVEPKSCDKTHTCPPCPAPPAAGPSVFLFPPKPKDTLMISRTPEVTCVVVDVSHEDPEVKFNWYVDGVEVHNAKTKPREEQYNSTYRVVSVLTVLHQDWLNGKEYKCKVSNKALAAPIEKTISKAKGQPREPQVYTLPPSRDELTKNQVSLTCLVKGFYPSDIAVEWESNGQPENNYKTTPPVLDSDGSFFLYSKLTVDKSRWQQGNVFSCSVMHEALHNHYTQKSLSLSPGK
light: DIVMTQSPDSLAVSLGERATINCKSSQSLLNDINQKNYLAWYQQKPGQSPKLLVYFASTGVSGVPDRFSGSGSGTDFTLTISSLQAEDVAVYYCQQYYSFPWTFGGGTKVEIK
modifications: left off: a dimerising Fc or GST
notes: "1st version of humanized antibody BGA-4348", CDR-grafted from BGA-3295, human IgG1 variant format

Reference: US20250312473A1, “B7H3 ANTIBODY DRUG CONJUGATES” (BEONE MEDICINES I GMBH, priority 2022, published 2025)
